From patent publication US20240132578A1

Experiments:
Test in all cases: cell-based or functional assay
[1] = target: HIV-1 JRFL Env (HIV-1 isolate JRFL (clade B))
[2] = target: HIV-1 MGRM-C-027 Env (HIV-1 isolate MGRM-C-027 (clade C))
[3] = target: HIV-1 envelope glycoprotein (Env) of isolate 92UG024 (HIV-1)
[4] = target: HIV-1 envelope glycoprotein (Env) of isolate MGRM-C-028 (HIV-1)
[5] = target: HIV-1 envelope glycoprotein (Env) of isolate APV13 (HIV-1)
[6] = target: HIV-1 envelope glycoprotein (Env) of isolate APV6 (HIV-1)
[7] = target: HIV-1 envelope glycoprotein (Env) of isolate MGRM-D-001 (HIV-1)
[8] = target: HIV-1 MGRM-C-026 envelope glycoprotein (Env) on virus (HIV-1, clade C, isolate MGRM-C-026)
[9] = target: HIV-1 MGRM-A-010 envelope glycoprotein (Env) on virus (HIV-1, clade A, isolate MGRM-A-010)
[10] = target: HIV-1 MGRM-C-028 envelope glycoprotein (Env) on virus (HIV-1, clade C, isolate MGRM-C-028)
[11] = target: HIV-1 93IN905 envelope glycoprotein (Env) on virus (HIV-1, clade C, isolate 93IN905)
[12] = target: HIV-1 APV17 Env (pseudovirus) (HIV-1)
[13] = target: HIV-1 MGRM-C-026 Env (pseudovirus) (HIV-1)
[14] = target: HIV-1 JRFL envelope glycoprotein (Env) (HIV-1)
[15] = target: HIV-1 MGRM-AG-005 envelope glycoprotein (Env) (HIV-1)
[16] = target: HIV-1 92UG005 envelope glycoprotein (Env) (HIV-1)
[17] = target: HIV-1 92TH021 envelope glycoprotein (Env) (HIV-1)
[18] = target: aMLV envelope protein on pseudovirus (control virus)
[19] = target: HIV-1 Env of pseudovirus TR0.11 (HIV-1)
[20] = target: Envelope protein of control pseudovirus MuLV (MuLV)
[21] = target: HIV-1 CMU02 envelope glycoprotein (Env), clade AE pseudovirus (HIV-1)
[22] = target: HIV-1 APV13 envelope glycoprotein (Env), clade B pseudovirus (HIV-1)
[23] = target: HIV-1 NL43 envelope glycoprotein (Env), clade B pseudovirus (HIV-1)
[24] = target: HIV-1 envelope glycoprotein (Env) of isolate MG RM-A-004 (HIV-1)
[25] = target: HIV-1 Env of isolate MGRM-Chronic-B-011 (subtype B), on pseudovirus (HIV-1)
[26] = target: HIV-1 envelope glycoprotein (Env) of isolate 92UG037 (HIV-1)
[27] = target: HIV-1 Env of isolate 93IN905 (clade C) (HIV-1)
[28] = target: HIV-1 Env of isolate MGRM-C-028 (clade C) (HIV-1)
[29] = target: HIV-1 JR-CSF Env T319A (HIV-1 (isolate JR-CSF, clade B)) (UniProt P20871)

Sequence of 5329_C19 (PGT-136) (antibody) (VH): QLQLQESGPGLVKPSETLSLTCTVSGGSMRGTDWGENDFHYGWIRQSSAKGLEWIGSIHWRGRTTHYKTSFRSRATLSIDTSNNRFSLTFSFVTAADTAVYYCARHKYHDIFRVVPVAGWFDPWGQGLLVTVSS
Sequence of 5329_C19 (PGT-136) (antibody) (VL): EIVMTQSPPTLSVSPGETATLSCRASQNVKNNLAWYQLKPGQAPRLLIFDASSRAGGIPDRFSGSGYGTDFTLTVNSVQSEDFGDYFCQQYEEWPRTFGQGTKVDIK
Sequence of 1443_C16 (PG16) (TCN-116) (antibody) (VH): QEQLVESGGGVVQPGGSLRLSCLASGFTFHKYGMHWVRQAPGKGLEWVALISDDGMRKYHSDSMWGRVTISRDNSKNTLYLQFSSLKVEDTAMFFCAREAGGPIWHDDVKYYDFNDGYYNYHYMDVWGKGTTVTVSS
Sequence of 1443_C16 (PG16) (TCN-116) (antibody) (VL): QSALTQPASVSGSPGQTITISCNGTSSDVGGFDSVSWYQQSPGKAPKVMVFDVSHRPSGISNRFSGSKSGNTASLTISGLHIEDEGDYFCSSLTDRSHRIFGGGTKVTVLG

Substance: 4838_L06 (PGT-121) (antibody)
- Neutralization IC80 [1]: 0.0806 µg/mL
- Neutralization IC90 [1]: 0.151 µg/mL
- Neutralization IC95 [1]: 0.267 µg/mL
- Neutralization IC80 [2]: 0.0829 µg/mL
- Neutralization IC90 [2]: 0.374 µg/mL
- Neutralization IC95 [2]: 3.14 µg/mL

Substance: 5141_B17 (PGT-126) (antibody)
- Neutralization IC80 [3]: > 10 µg/mL
- Neutralization IC90 [3]: > 10 µg/mL
- Neutralization IC95 [3]: > 10 µg/mL
- neutralization IC50 [3]: > 10 µg/mL
- Neutralization IC80 [4]: 2.62 µg/mL
- Neutralization IC90 [4]: > 10 µg/mL
- Neutralization IC95 [4]: > 10 µg/mL
- neutralization IC50 [4]: 0.283 µg/mL
- Neutralization IC80 [5]: 0.0411 µg/mL
- Neutralization IC90 [5]: 0.084 µg/mL
- Neutralization IC95 [5]: 0.162 µg/mL
- neutralization IC50 [5]: 0.012 µg/mL
- Neutralization IC80 [6]: 0.0681 µg/mL
- Neutralization IC90 [6]: 0.123 µg/mL
- Neutralization IC95 [6]: 0.213 µg/mL
- neutralization IC50 [6]: 0.0249 µg/mL
- Neutralization IC80 [7]: 0.333 µg/mL
- Neutralization IC90 [7]: 0.832 µg/mL
- Neutralization IC95 [7]: 1.8 µg/mL
- neutralization IC50 [7]: 0.0639 µg/mL

Substance: 4877_D15 (PGT-122) (antibody)
- Neutralization IC80 [8]: 0.037 µg/mL
- Neutralization IC90 [8]: 0.0849 µg/mL
- Neutralization IC95 [8]: 0.181 µg/mL
- neutralization IC50 [8]: 0.0089 µg/mL
- Neutralization IC80 [9]: > 10 µg/mL
- Neutralization IC90 [9]: > 10 µg/mL
- Neutralization IC95 [9]: > 10 µg/mL
- neutralization IC50 [9]: 1.68 µg/mL
- Neutralization IC80 [10]: > 10 µg/mL
- Neutralization IC90 [10]: > 10 µg/mL
- Neutralization IC95 [10]: > 10 µg/mL
- neutralization IC50 [10]: 2.06 µg/mL
- Neutralization IC80 [11]: 0.0505 µg/mL
- Neutralization IC90 [11]: 0.108 µg/mL
- Neutralization IC95 [11]: 0.217 µg/mL
- neutralization IC50 [11]: 0.0138 µg/mL

Substance: 5123_A06 (PGT-125) (antibody)
- Neutralization by PGT-125, IC50 [12]: 7.31 µg/mL
- Neutralization by PGT-125, IC80 [12]: > 10 µg/mL
- Neutralization by PGT-125, IC90 [12]: > 10 µg/mL
- Neutralization by PGT-125, IC95 [12]: > 10 µg/mL
- Neutralization by PGT-125, IC50 [13]: 0.0106 µg/mL
- Neutralization by PGT-125, IC80 [13]: 0.035 µg/mL
- Neutralization by PGT-125, IC90 [13]: 0.0705 µg/mL
- Neutralization by PGT-125, IC95 [13]: 0.134 µg/mL

Substance: 5329_C19 (PGT-136) (antibody)
- Neutralization IC80 [14]: > 10 µg/mL
- Neutralization IC90 [14]: > 10 µg/mL
- Neutralization IC95 [14]: > 10 µg/mL
- neutralization IC50 [14]: > 10 µg/mL
- Neutralization IC80 [15]: > 10 µg/mL
- Neutralization IC90 [15]: > 10 µg/mL
- Neutralization IC95 [15]: > 10 µg/mL
- neutralization IC50 [15]: > 10 µg/mL
- Neutralization IC80 [16]: > 10 µg/mL
- Neutralization IC90 [16]: > 10 µg/mL
- Neutralization IC95 [16]: > 10 µg/mL
- neutralization IC50 [16]: > 10 µg/mL
- Neutralization IC80 [17]: > 10 µg/mL
- Neutralization IC90 [17]: > 10 µg/mL
- Neutralization IC95 [17]: > 10 µg/mL
- neutralization IC50 [17]: > 10 µg/mL

Substance: 5343_B08 (PGT-135) (antibody)
- Neutralization IC80 [18]: > 10 µg/mL
- Neutralization IC90 [18]: > 10 µg/mL
- Neutralization IC95 [18]: > 10 µg/mL
- neutralization IC50 [18]: > 10 µg/mL

Substance: 1443_C16 (PG16) (TCN-116) (antibody)
- IC50, pseudovirus neutralization (TZM-bl assay) [19]: 3.61 µg/mL
- IC50, pseudovirus neutralization (TZM-bl assay), control virus [20]: > 25 µg/mL

Substance: 4858_P08 (PGT-123) (antibody)
- IC50, pseudovirus neutralization [21]: > 10 µg/mL
- IC80 (pseudovirus neutralization) [21]: > 10 µg/mL
- IC90 (pseudovirus neutralization) [21]: > 10 µg/mL
- IC95 (pseudovirus neutralization) [21]: > 10 µg/mL
- IC50, pseudovirus neutralization [22]: 0.222 µg/mL
- IC80 (pseudovirus neutralization) [22]: 0.879 µg/mL
- IC90 (pseudovirus neutralization) [22]: 1.87 µg/mL
- IC95 (pseudovirus neutralization) [22]: 3.5 µg/mL
- IC50, pseudovirus neutralization [23]: > 10 µg/mL
- IC80 (pseudovirus neutralization) [23]: > 10 µg/mL
- IC90 (pseudovirus neutralization) [23]: > 10 µg/mL
- IC95 (pseudovirus neutralization) [23]: > 10 µg/mL

Substance: PGV04 (antibody)
- IC50 [24]: 0.175 µg/mL
- IC50, single-round pseudovirus neutralization [25]: 0.497 µg/mL
- IC50 [26]: 0.145 µg/mL

Substance: 1496_C09 (PG9) (TCN-109) (antibody)
- Neutralization IC80 [27]: 0.308 µg/mL
- Neutralization IC90 [27]: 0.981 µg/mL
- Neutralization IC95 [27]: 3.31 µg/mL
- neutralization IC50 [27]: 0.048 µg/mL
- Neutralization IC80 [28]: 0.645 µg/mL
- Neutralization IC90 [28]: 1.65 µg/mL
- Neutralization IC95 [28]: 3.71 µg/mL
- neutralization IC50 [28]: 0.121 µg/mL

Substance: 5147_N06 (PGT-130) (antibody)
- Fold IC50 increase relative to wild-type [29]: 1.6 fold
